From PMC9285634

Target: Pyruvate kinase M2 (PKM2), endogenous (human (endogenous in HeLa and HCT116)) (UniProt P14618)
Assay: cross-linking; cell or tumor tissue lysate in PBS with 0.1% Triton X-100; 4 ug protein crosslinked with 0.025% glutaraldehyde for 2 min at 37 C, stopped with Tris-HCl pH 8.0 50 mM; SDS-PAGE and WB with anti-PKM2; cells with HITT overexpression or KD, HITT fragments, miR-106, FBP; HCT116 xenografts

Sequence of Pyruvate kinase M2 (PKM2), endogenous, P14618 1-531 (enzyme; other documents disagree on this pair) (P14618 whole entry): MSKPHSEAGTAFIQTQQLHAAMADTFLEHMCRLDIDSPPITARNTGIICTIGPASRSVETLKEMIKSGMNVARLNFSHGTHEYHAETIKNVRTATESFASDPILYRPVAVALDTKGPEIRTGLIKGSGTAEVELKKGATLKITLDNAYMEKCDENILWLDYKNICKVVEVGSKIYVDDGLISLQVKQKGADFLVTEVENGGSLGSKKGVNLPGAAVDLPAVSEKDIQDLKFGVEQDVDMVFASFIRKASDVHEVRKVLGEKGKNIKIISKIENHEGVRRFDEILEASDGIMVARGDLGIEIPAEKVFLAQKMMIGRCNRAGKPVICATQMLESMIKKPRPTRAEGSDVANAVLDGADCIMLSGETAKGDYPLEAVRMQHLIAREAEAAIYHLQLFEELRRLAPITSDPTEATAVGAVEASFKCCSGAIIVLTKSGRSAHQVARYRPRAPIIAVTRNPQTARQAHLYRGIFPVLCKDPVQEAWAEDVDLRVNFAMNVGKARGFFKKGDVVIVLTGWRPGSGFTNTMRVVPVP

## Pyruvate kinase M2 (PKM2), endogenous, P14618 1-531 (enzyme; other documents disagree on this pair)
  stoichiometry N: 2
